Measurements from PMC9865888.

Biological target: S. aureus DNA gyrase fusion truncate GyrB27:A56 (GKdel) (Staphylococcus aureus) (UniProt P66937)
Assay: crystal structure; 2.8 Å, space group P6_(1); microbatch under oil, 20 °C; complex with 20-447T DNA duplex, zoliflodacin and MnCl2; 90 mM Bis-Tris pH 6.3, 9% PEG 5 kMME

“S. aureus DNA gyrase fusion truncate GyrB27:A56 (GKdel) (from UniProt P66937 409-644; Q99XG5 2-491) (enzyme)” gave a stoichiometry N of 2.
